Test results taken from the supplement of paper PMC10567573.

B1: GNB5 (parent)
chain: DINSVRYYPSGDAFASGSDDATCR

Variants of: B1
Assay: protein stability index of a GFP-peptide fusion (GPS, HEK-293T) (PSI 1-6); higher = more stable
Details: c terminus: a fixed tail appended
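Further: lentivirally expressed fusions sorted by FACS into six bins by GFP to DsRed ratio, PSI derived from sequencing read proportions per bin multiplied by bin number.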

| Variant | protein stability index |
| --- | --- |
| A21M | 3.44 |
| A21H | 3.62 |
| A21E | 4.38 |
| A21N | 4.16 |
| A21P | 4.16 |
| A21Y | 3.19 |
| A21S | 3.91 |
| A21K | 3.8 |
| A21L | 3.82 |
| A21R | 3.63 |
| A21G | 3.63 |
| A21Q | 3.98 |
| A21F | 3.3 |
| A21T | 3.79 |
| A21C | 3.82 |
| A21V | 3.72 |
| A21D | 4.34 |
| A21W | 2.79 |
| A21I | 3.44 |
| F14V | 4.28 |
| F14Y | 4.09 |
| F14P | 4.38 |
| F14Q | 4.44 |
| F14H | 3.99 |

| Variant | protein stability index |
| --- | --- |
| F14K | 4.12 |
| F14N | 3.8 |
| F14I | 4.49 |
| F14W | 3.94 |
| F14M | 3.85 |
| F14T | 4.75 |
| F14S | 4.64 |
| F14L | 4.1 |
| F14R | 3.64 |
| S16P | 3.88 |
| S16C | 3.66 |
| S16G | 4.28 |
| S16T | 3.49 |
| S16M | 3.29 |
| S16F | 3.46 |
| S16N | 4.15 |
| S16I | 3.27 |
| S16Q | 3.78 |
| S16K | 3.34 |
| S16L | 3.58 |
| S16E | 4.55 |
| S16H | 3.84 |
| S16V | 3.84 |
| S16Y | 3.55 |

| Variant | protein stability index |
| --- | --- |
| S16R | 3.77 |
| S16A | 4.04 |
| S16W | 3.15 |
| S16D | 4.27 |
| C23A | 4.53 |
| A15V | 3.91 |
| A15M | 3.57 |
| A15C | 3.66 |
| A15E | 4.09 |
| A15H | 3.7 |
| A15F | 2.83 |
| A15T | 3.63 |
| A15K | 3.58 |
| A15N | 4.12 |
| A15G | 3.51 |
| A15P | 3.92 |
| A15L | 3.73 |
| A15D | 4.16 |
| A15R | 2.99 |
| A15Y | 3.23 |
| A15W | 3.29 |
| A15I | 3.43 |
| A15S | 3.66 |
| A15Q | 3.86 |

| Variant | protein stability index |
| --- | --- |
| G17T | 3.63 |
| G17V | 3.65 |
| G17W | 3.07 |
| G17Y | 3.29 |
| G17R | 3.65 |
| G17P | 4.05 |
| G17M | 3.29 |
| G17N | 3.68 |
| G17S | 3.84 |
| G17I | 3.21 |
| G17F | 2.93 |
| G17Q | 3.75 |
| G17D | 4.4 |
| G17A | 3.74 |
| G17H | 3.4 |
| G17E | 4.34 |
| G17L | 3.12 |
| G17K | 3.65 |
| G17C | 3.66 |
| D20C | 3.53 |
| D20L | 3.15 |
| D20N | 3.42 |
| D20V | 3.27 |
| D20T | 3.58 |

| Variant | protein stability index |
| --- | --- |
| D20W | 2.16 |
| D20F | 2.5 |
| D20I | 3.14 |
| D20Q | 3.69 |
| D20H | 3.04 |
| D20Y | 2.6 |
| D20P | 3.4 |
| D20E | 3.94 |
| D20M | 3.13 |
| D20K | 3.06 |
| D20S | 3.47 |
| D20R | 3.2 |
| D20G | 3.61 |
| D20A | 3.44 |
| S18L | 3.55 |
| S18T | 4.06 |
| S18M | 3.49 |
| S18P | 3.74 |
| S18W | 3.02 |
| S18E | 4.43 |
| S18Y | 3.43 |
| S18I | 3.56 |
| S18A | 3.35 |
| S18H | 3.82 |

| Variant | protein stability index |
| --- | --- |
| S18D | 4.24 |
| S18C | 3.88 |
| S18Q | 3.81 |
| S18F | 3.26 |
| S18N | 4 |
| S18V | 3.33 |
| S18G | 4.48 |
| S18K | 3.55 |
| S18R | 3.12 |
| T22N | 4.01 |
| T22L | 3.72 |
| T22M | 3.47 |
| T22V | 3.8 |
| T22D | 3.76 |
| T22H | 4.06 |
| T22A | 3.92 |
| T22E | 4.86 |
| T22F | 3.42 |
| T22C | 3.65 |
| T22G | 4.05 |
| T22P | 3.56 |
| T22I | 3.84 |
| T22K | 4.07 |
| T22Y | 2.94 |

| Variant | protein stability index |
| --- | --- |
| T22W | 3 |
| T22R | 3.57 |
| T22S | 3.91 |
| T22Q | 4.15 |
| D19S | 3.4 |
| D19F | 2.39 |
| D19P | 3.4 |
| D19A | 2.88 |
| D19W | 3.03 |
| D19N | 3.2 |
| D19Q | 3.75 |
| D19L | 3.14 |
| D19Y | 2.62 |
| D19M | 2.95 |
| D19G | 3.79 |
| D19K | 3.7 |
| D19H | 3.12 |
| D19E | 4.15 |
| D19I | 3.03 |
| D19V | 2.69 |
| D19R | 3.06 |
| D19C | 2.85 |
| D19T | 3.25 |
